The values that follow come from patent US20170152299A1 (GUANGZHOU SHENGLU BIOTECH, published 2017).

T1: FGF7 (UniProt P21781 32-194)
T1 construct: Bought reagent; also called KGF
T1 sequence (looked up): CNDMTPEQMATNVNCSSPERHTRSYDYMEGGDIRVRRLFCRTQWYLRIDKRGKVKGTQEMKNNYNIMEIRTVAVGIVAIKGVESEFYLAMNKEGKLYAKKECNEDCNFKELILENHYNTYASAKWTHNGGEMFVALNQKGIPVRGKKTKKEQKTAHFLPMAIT

B1: truncated protein of the wild-type FGFR2b extracellular fragment (SEQ ID NO: 8) (receptor)
chain: KRAPYWTNTEKMEKRLHAVPAANTVKFRCPAGGNPMPTMRWLKNGKEFKQEHRIGGYKVRNQHWSLIMESVVPSDKGNYTCVVENEYGSINHTYHLDVVERSPHRPILQAGLPANASTVVGGDVEFVCKVYSDAQPHIQWIKHVEKNGSKYGPDGLPYLKVLKHSGINSSNAEVLALFNVTEADAGEYICKVSNYIGQANQSAWLTVLPKQQAPGR
notes: also called truncated FGFR2b extracellular fragment, wild type
B2: truncated protein of P253R mutant-type FGFR2b extracellular fragment (SEQ ID NO: 12) (receptor)
chain: KRAPYWTNTEKMEKRLHAVPAANTVKFRCPAGGNPMPTMRWLKNGKEFKQEHRIGGYKVRNQHWSLIMESVVPSDKGNYTCVVENEYGSINHTYHLDVVERSRHRPILQAGLPANASTVVGGDVEFVCKVYSDAQPHIQWIKHVEKNGSKYGPDGLPYLKVLKHSGINSSNAEVLALFNVTEADAGEYICKVSNYIGQANQSAWLTVLPKQQAPGR
notes: also called truncated FGFR2b extracellular fragment, P253R mutant type
B3: truncated protein of S252W mutant-type FGFR2b extracellular fragment (SEQ ID NO: 10) (receptor)
chain: KRAPYWTNTEKMEKRLHAVPAANTVKFRCPAGGNPMPTMRWLKNGKEFKQEHRIGGYKVRNQHWSLIMESVVPSDKGNYTCVVENEYGSINHTYHLDVVERWPHRPILQAGLPANASTVVGGDVEFVCKVYSDAQPHIQWIKHVEKNGSKYGPDGLPYLKVLKHSGINSSNAEVLALFNVTEADAGEYICKVSNYIGQANQSAWLTVLPKQQAPGR
notes: also called truncated FGFR2b extracellular fragment, S252W mutant type

This assay addresses T1, FGF7. As to the kind of experiment: isothermal titration calorimetry; FGF7 titrated into the truncated FGFR2b extracellular fragment in the sample cell (Example 8). How it is done: The three types of the FGFR2b extracellular fragments and FGF7 (purchased from Millipore) were dialysed respectively with iTC buffer (0.15 mol/L NaCl and 5% glycerol in 20 mmol/L Na₂HPO₄-citrate buffer, pH 7.2). The proteins after the dialysis was centrifuged at 4° C. and 18000 rpm for 30 min before the iTC experiment.
400 ul 35 μmol/L of each of the three types of the FGFR2b extracellular fragments was added to the sample pool, respectively, and titrated with 200 μl 93 μmol/LFGF7 at 2 μl per time at a 2.5 min interval for a total of 20 drops.
Background: In ITC the heat of successive injections is recorded.
Take B1: the Ka was determined as 8.74e+06 M⁻¹. For B2 the value was 3.94e+07 M⁻¹; for B3, 1.26e+08 M⁻¹.
